Data as given in patent US20090291083A1, “BARB4 TARGET, ANTIBODY DESIGNATED BARB4, BARB4 RELATED ANTIBODIES, AND METHODS OF MAKING AND USING SAME” (PATRYS LIMITED, priority 2008, published 2009).

Assays:
Test in all cases: Immunohistochemistry (IHC) with biotinylated BARB4 on malignant tissue
Format in all cases: binding, human
[1] = tested on: Malignant Tissues: Esophagus; details: positive/negative
Method: (§1) Immunohistochemistry with human IgG on human tissue naturally results in high background staining. Accordingly, BARB4 was labeled with biotin to reduce background.
(§2) BARB4 antibody and an unrelated commercial IgG control (Chrompure IgG, Dianova) where labelled with “EZ-Link Maleimide-PEO Solid Phase Biotinylation Kit” from Pierce (Cat-# 21930) and Immunohistochemistry was initiated on different tumor tissue. Parrafin embedded tissue was first deparaffinized by treatment with Xylene 1 for 5 min, Xylene 2 for 5 min, followed by 100% Ethanol 1 for 5 min, 100% Ethanol 2 for 5 min, 70 ml Methanol+500 μl H2O2 for 7 min, 90% Ethanol 1 for 3 min, 90% Ethanol 2 for 3 min, 80% Ethanol 1 for 3 min, 80% Ethanol 2 for 3 min, 70% Ethanol 1 for 3 min, 70% Ethanol 2 for 3 min, and then washed three times with distilled H2O. (1 and 2 mean that the tissues were treated 2 times with the same alcohol, one after the another, in two different tanks.) Tissue was then heated in Citric acid, pH 5,5 in a water-bath at 99.9° C. for 20 min, placed in Tris/NaCl (Tris, 0.6 g/l and NaCl 8.1 g/l, pH 7.4) for 5 min, block with 0.5% BSA in PBS for 60 min, and then washed three times with Tris/NaCl (Tris, 0.6 g/l and NaCl 8.1 g/l, pH 7.4). Primary antibody (150 μl per microscope slide) was added, or a negative control biotinylated isotype matched control human antibody (Chrompure IgG, Dianova, Germany) or a positive controlanti-cytokeratin antibody, and incubated for 30 min in a humidified chamber at 37° C. Tissue was washed three times with Tris/NaCl (Tris, 0.6 g/l and NaCl 8.1 g/l, pH 7.4). Secondary antibody: (150 […]) was subsequently added and incubated for 30 min in a humidified chamber at room temperature (for biotinylated antibodies: NeurtrAvidin 1:100 in PBS), washed three times with Tris/NaCl (Tris, 0.6 g/l and NaCl 8.1 g/l, pH7.4), placed in PBS for 10 min. Tiusse was subsequently incubated with diaminobenzidine (0.05%)-hydrogen peroxide (0.02%) (150 μl per microscope slide) (Sigma, Taufkirchen, München, Germany) for 10 min, washed three times with H2O, washed once with distilled H2O, incubated with hematoxylin/eosin for 5 min, and placed under running tap water 10-15 min. Tissue was then washed again with distilled H2O, and the slides covered with Aquatex (Merck Bioscience).

[2] = tested on: Malignant Tissues: Pancreas; details: positive/negative
Method: as §1, §2

[3] = tested on: Malignant Tissues: Prostrate; details: Adeno, positive/negative
Method: as §1, §2

[4] = tested on: Malignant Tissues: Stomach; details: positive/negative
Method: as §1, §2

Malignant Tissues: Lung = details: positive/negative
Method: as §1, §2

[5] = tested on: Malignant Tissues: Breast; details: positive/negative
Method: as §1, §2

B1: BARB4: human IgG antibody produced by hybridoma DSMZ Deposit No. DSM ACC2876; heavy chain SEQ ID NOs:1, 3, 5, 7, light chain SEQ ID NO:9 (antibody, V domains shown)
VH: QVQLVESGGGVVQPGRSLRLSCAASGFRFTTHGMHWVRQAPGKGLEWVAVISYNGRNKYYADYVNGRFTISRDDSRDTVFLQMNSLRPEDTAMYYCAKVRGDGYGDYGYFDYWGHGTLVSVSS
VL: QSALTQPRSVSGSPGQSVTISCTGTYNYVSWYQQHPGKAPKLMIFDVSRRSSGVPDRFSGSKSGNTASLTISGLQAEDEADYYCCSYGGTYLYVFGTGTTVTVLGQ
- Barb 4 +/− ([1]; Adeno (Barrett Carcinoma)): 1/0
- Barb 4 +/− ([1]; Squamous cell): 1/0
- Barb 4 +/− ([2]; Adeno): 0/1
- Barb 4 +/− ([2]; Lymph Node Metastasis): 4/0
- Barb 4 +/− [3]: 1/0
- Barb 4 +/− ([4]; Adeno (Cardio, intestinal)): 1/0
- Barb 4 +/− ([4]; Adeno (intestinal)): 2/0
- Barb 4 +/− (Malignant Tissues: Lung; Carcinoid (neuron-endocrine)): 1/0
- Barb 4 +/− (Malignant Tissues: Lung; Lymph Node Metastasis): 1/0
- Barb 4 +/− (Malignant Tissues: Lung; Squamous cell): 2/0
- Barb 4 +/− ([5]; Invasive ductal): 2/0
- Barb 4 +/− ([5]; Lung Metastasis): 1/0
- Barb 4 +/− ([5]; Lymph Node Metastasis): 1/0
